The results in this text go back to patent US20260209318A1 (NATIONAL UNIVERSITY OF SINGAPORE, published 2026).

To fix the notation:
B1: Ab4 (G7.2) (antibody, V domains shown)
VH: QVQLVQSGAEVKKPGSSVKVSCEASGGTFSTYAISWVRQAPGQGLEWMGRIIPIFGIANYAQKFQGRVTITADKSTSTAYMEVSSLRSEDTAVYYCATTFYDHSSTYRTHSMDVWGQGTTVTVSS
VL: DIQMTQSPSSLSASVGDRVTITCRASQSISNYLNWYQQRPGKAPKLLIYAASGLQSGVPSRFSGSGSGTNFTLTISTLHPEDFATYYCQQTHSTPRAFGGGTKVEIK
B2: Ab19 (F5.1) (antibody, V domains shown)
VH: EVQLVESGGGLVKPGGSLRLSCAASGFIFSRNGMHWVRQAPGKGLEWVSSIDNDGTYMYYADSVRGRFTVSRDNAKNSLFLQLNSLRAEDTAVYYCARDRFGYYDALTDSYNAGYFDSWGQGTLVTVSS
VL: DIQMTQSPSSLSASVGDSVTITCRASQDIYNYLAWFQQKPGKAPKSLIYTASKLESGVPSKFSGSGSGTDFTLTISSLQPEDFATYYCQQYHSSPITFGQGTRVEIK
B3: Ab12 (H5) (antibody, V domains shown)
VH: EVQLLESGGGLVQPGGSLRLSCAASGFTFSGSDMSWVRQAPGKGLEWVSVIGGSGTYAYYSDSVKGRFTISRDNSKNMLFLQMNSLRAEDTAIYYCAKETGFLWFGELLDSWGQGALVTVSS
VL: DIQMTQSPSSLSASVGDRVTITCRASEAISNSLAWYQQRPGKAPRLLLYAAATLESGVPPRFSGSGSGTDFTLTISTLQPEDFATYYCQQYYSPPPRTFGQGTKVEIK
B4: Ab32 (10x-L8N-c12) (antibody, V domains shown)
VH: EVQLVESGGGLVQPGGSLRVTCVASGFAVRTNFMTWVRQAPGKGLQCVSVIYGDGSTYYADSVKGRFSISRDNSKNTVYLQMNSLSAEDTAVYYCAREVSHAFDLWGPGTMVTVSS
VL: DIQLTQSPSTLSASLGDRVTITCRASQSISGWLAWYQQKPGRAPQLLIYKASLLETGVPSRFSGSGSGTVFTLTISSLQPDDFATYYCQQYDTYSPYTFGQGTKLEIK
B5: Ab21 (E6.1) (antibody, V domains shown)
VH: QVQLVQSGAEVKKPGSSVEVSCKASGGTFSSYAISWVRQAPGQGLEWMGRIIPSLGITNSAENFQGRVTITADKSTSTVYMELSSLRSEDTAVYYCARDFHPLYQSCSSTSCYDEWEPRMDVWGQGTTVTVSS
VL: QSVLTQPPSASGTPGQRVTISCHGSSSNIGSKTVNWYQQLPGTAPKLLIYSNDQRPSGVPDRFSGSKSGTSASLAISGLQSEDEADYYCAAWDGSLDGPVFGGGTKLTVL
B6: Ab39 (10x-L8N-c30) (antibody, V domains shown)
VH: QVQLVQSGAEVKKPGSSVKISCKASGDTSSSYTINWVRQAPGQGLEWMGRIIPMFNRANYARKFQGRVTMTADRSTDTAYMEVSSLTSDDTAVYYCARTWIEPHNWFDPWGQGTLVTVSS
VL: EIVLRQSPGTLSLSPGERATLSCRASQSVSGNHLAWYQRKPGQAPRLLIYAASSRATGIPDRFSGSGSGTDFTLTINRLEPEDFAVFYCQQYGTSPPTFGGGTKVEIK
B7: Ab20 (C6.1) (antibody, V domains shown)
VH: EVQLVESGGGLVKPGGSLRLSCAASGFAFSTNGMNWVRQVPGKGLEWVSSISSTSEYTYYTESVKGRFTISRDNAKNSLFLQMNSLRAEDTAVYYCVRDRFGYYDVLASSYNVGFFQSWGQGALVTVSS
VL: DIQMTQSPSSLSASVGDGVTITCRASQDISNNLAWFQQKPGKAPKCLIYSASSLQSGVPLKFRGSGSGTDFTLSITSLDPEDFATYYCQQYISYPITFGQGTRLDIK
B8: Ab9 (C68) (antibody, V domains shown)
VH: QVQLVQSGAEVKKPGASVKVSCKISGYTLTDFSIHWVRQAPGKGLEWMAGFDPEHRETIFAQKFQGRVAMTEATSTDTAYMELSSLRSDDTAVYYCATTGDFDSWRGYYLWGQGTLVTVSA
VL: DIQLTQSPSSVSASVGDSVTITCRASQGISRWLAWYQQKPGKAPRLLIYSASTLQSGVPSRFSGSGSGTDFTLTISSLQPDDFATYYCQHTNNFPFSFGPGTKVDIK
B9: Ab3 (C2.2) (antibody, V domains shown)
VH: QVQLVQSGAEVKKPGSSVRVSCEASGDTFSRYAISWVRQAPGQGLEWMGRIIPMFGMANSAQKFQARVTISADKSTSTAYMEVSSLRSEDTAVYYCATDTFYPNDGVHRMEYWGQGALVIVSS
VL: DIQMTQSPSSLSASVGDRVTITCRASQTISNYLNWYQQKPGKAPNLLIYGTSILQSGVPSRFSGSGSGTDFTLTISSLQPEDFATYYCQQSHSAPRTFGPGTKVDIK
B10: Ab27 (E12.2) (antibody, V domains shown)
VH: EVQLVESGGGLVQPGGSLRLSCGASGITVSSNYMNWVRQAPGKGLEWVSTLYAGGSTFYADSVKGRFIISRDNSKNTLYLQMNSLRADDTAVYYCARDLVDYGMDVWGQGTTVTVSS
VL: DIQLTQSPSSLSASVGDRVTITCRASQGISSYLAWYQQKPGKAPKLLIYAASTLQSGVPSRFSGSGSGTDFTLTISSLQPEDFATYYCQQLNSYSPFTFGPGTKVDIK
B11: Ab23 (B10.1) (antibody, V domains shown)
VH: QVQLVQSGAEVKKPGSAVKVSCKASGGTFSSYPITWVRQAPGQGLEWVGRAIPILGITSTAQKFQGRVTIIADKSTSTAYMELSRLRSEDTAVYYCARDFHPRYQDCDSTSCYDQWEPRMDVWGQGTTVTVSS
VL: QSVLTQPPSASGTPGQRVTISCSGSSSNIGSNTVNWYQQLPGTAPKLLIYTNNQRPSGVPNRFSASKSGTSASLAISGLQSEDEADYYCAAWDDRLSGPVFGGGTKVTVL
B12: Ab35 (10x-L8N-c20) (antibody, V domains shown)
VH: QVQLQESGPGLVKPSETLSLTCTVSGDSIYSYSWTWIRQPPGKGLEWIGQLYYNGSTSYNASLKSRVSISLDTSKNQFSLKLRFVTAADTAMYYCARVEYYSNYFDPWGQGTQVTVSS
VL: EIVLTQSPATLSLSPGERATLSCRASQSVGSYLAWYQQKPGQAPRLLIYDASNRVPGIPARFSGSGSGTDFTLTISSLPPEDFAVYYCQQRSDWPPTFGGGTKVEIR
B13: Ab7 (G1) (antibody, V domains shown)
VH: EVQLVESGGGLVKPGGSLRLSCAASGFTVSTYIINWVRQAPGKGLEWVSSITSESDYMFDADSVRGRFTISRDNAKNLVYLQMNSLRAEDTAVYYCARDQGAYSGYDLSPGGDAFDVWGQGTMVTVSS
VL: DIQMTQSPSTLSASVGDRVTITCRASQSISTWLAWYQQKPGKAPKLLIYKASNLESGVPSRFSGSGSGTEFTLTISRLQPDDSATYCCQHYNSYPYTFGQGTKVEIK
B14: Ab8 (B9) (antibody, V domains shown)
VH: EVQLVQSRAEVKKPGESLKISCKGSGYSFTTYWIGWVRQMPGKGLEWMGIIRPGDSDTRYSPSFQGQVTISADKSITTAYLQWSSLKASDTAMYYCAMTYSGDQYDFWGQGTVVTVSS
VL: DIQMTQSPSTLSASVGDRVTITCRASQSIHTWLAWYQQTPGKAPKLLIYKASLLESGVPSRFSGSGSGTEFTLTISSLQPGDFATYYCQHYNSYSHTFGQGTKVEIK
B15: Ab6 (K23) (antibody, V domains shown)
VH: EVQLVESGGGLVQPGGSLRLSCSASGFTFNNYVMHWVRQAPGKGLEYVSAINSNGGSTYYAGSVKGRFTISRDNSNNTLYLQMSSLRAEDTAVYYCIKDAGYYSSLGVDSWGQGTLVTVSS
VL: EIVLTQSPATLSLSPGERATLSCRASQSVGSYLAWFQQKPGQAPRLLIYDASYRATGIPARFSGSGSGTDFTLTISSLEPEDVGIYYCQQRSNWPQTFGGGTKVDIK
B16: Ab11 (D4) (antibody, V domains shown)
VH: QVQLQESGPRLVKPSGTLSLSCAVSGGPFSNTNWWSWIRQTPGKGLEWIGEINDSGNTVYNPALKSRVTMSVDKSKKQFSLNLHSLTAADTAVYFCARVWGHFDYWGQGVRVTVSS
VL: DIQMTQSPSSLYASVADRVTITCRASQGISNSLAWYQQQPGKAPQLLLYAASTLESGVPSRFSGSGSGTDFTLTISSLQPEDFATYYCQQYYSLRTFGGGTKVEIK
B17: Ab26 (G4.2) (antibody, V domains shown)
VH: QVQLVQSGAEVKKPGSSVKVSCKASGGTFSSHTVSWVRQAPGQGLEWMGRIIPPFGIVNYAQKFQGRVTMTADESTSTAYMELSSLRSEDTAVYYCARSNVVVVTEAGWFDPWGQGTLVTVSS
VL: DIQMTQSPSSVSASVGDRVSISCRASQDISSSLAWYQQKPGQAPKVLIYDASTLQSGVPSRFSGSGSGTDFTLTISNLRPDDFATYFCQQAHSFPFTFGPGTKVDIR
B18: Ab13 (D10) (antibody, V domains shown)
VH: EVQLVESGGGLVQPGRSLRLSCAASGFTFDEYAMHWVRQAPGKGLEWVSGISFNSGSVGYAGAAKGRFTISRDNAKKSLYLEMNSLRDEDTAFYYCAKDRGEHWLVRLFDSWGQGTLVTVSS
VL: DIQMTQSPSTLSASVGDRVTITCRPSQSIDRWLAWYQQKPGKAPTLLISAASSLETGVPSRFSGSGSGTEFTLTISSLQPDDFATYYCQQYNGYSMFGPGTKVEIK
B19: Ab22 (C9.1) (antibody, V domains shown)
VH: QVQLVQSGAEVKKPGSSVKVSCKASGGTFSSYGISWVRQAPGQGLEWMGRIIPSLSITNSAEKFQGRVTITADKSTSTAYMELSRLRSEDTALYYCARDFHPRYEFCDSTSCYDEWEPRMDVWGQGTTVTVSS
VL: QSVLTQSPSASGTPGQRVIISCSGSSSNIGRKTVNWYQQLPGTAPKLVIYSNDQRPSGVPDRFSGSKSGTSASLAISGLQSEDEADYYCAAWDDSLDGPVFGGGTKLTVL
B20: Ab25 (H10.2) (antibody, V domains shown)
VH: QVQLVQSGAEVKKPGSSVKVSCKASRGTFSNYAISWVRQAPGQGLEWMGRIIPSLSITNSAEKFQGRVTMTADKSTSTVYMELSRLRSEDTAVYYCARDFHPRYEYCSSTSCYDEWEPRMDVWGQGTTVTVSS
VL: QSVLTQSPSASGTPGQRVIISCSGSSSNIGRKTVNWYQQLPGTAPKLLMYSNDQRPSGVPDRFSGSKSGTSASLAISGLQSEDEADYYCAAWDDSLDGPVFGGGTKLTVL
B21: Ab14 (F9) (antibody, V domains shown)
VH: EVQLVESGGGLVQPGGSLRLSCATSGFTFDDFAMHWVRQGPGKGLEWVSGISWNSGKIAYTDSVKGRFSISRDNAKNSLYLQMNSLRPEDTALYYCTKDHAPSAILGDILTGFDPWGQGTLVT
VL: DIQMTQSPVSLSASVGDRVTITCRASQSISVYLNWYQQKPGKAPKLLMYAASILQSGVPSRFSGSGSATDFTLTITSLQPEDFATYFCQQSFTMPPTFGQGTNLEIK
B22: Ab28 (10x-L8N-c1) (antibody, V domains shown)
VH: QFQLVQSGAEVKKPGSSVKVSCRASGGSFTSHAISWVRQAPGQGFEWMGRIIPMFGIANYAPKFQGRVTMSADKFKDIVYMEVNSLTSEDTALYYCARSQPMTSVTTLWFDPWGQGTLVTVSS
VL: EIVLTQSPGTLSLSPGERATLSCRASEPVGGSYLAWYQQKPGQAPRLLIHGASSRATGIPDRFSGSGSGTDFVLTISRLEPEDFAVYHCQQYASSPYTFGQGTKLEIK

This experiment concerns the target BQ.1.1 spike protein (SARS-CoV-2 variant BQ.1.1, UniProt P0DTC2 14-1273). Description: cell-based or functional assay.
As to B1, the “IC50 (pVNT)” value was not above 300 ng/ml, the “concentration required to effectively neutralize (pVNT)” value came to 48.4 ng/ml and the “times less than the concentration of E7” value was approximately 11 times.
B2: the “IC50 (pVNT)” value was not above 550 ng/ml.
Same read-out and setting: the same measure for B3: not above 550 ng/ml; for B4: not above 550 ng/ml.
As to B5, the “IC50 (pVNT)” value was not above 550 ng/ml.
Still for that read-out and setting: the same measure for B6: not above 550 ng/ml.
On the same count and under the same terms, the same measure for B7: not above 550 ng/ml; for B8: not above 550 ng/ml.
Turning to B9, the “IC50 (pVNT)” value is not above 300 ng/ml, the “concentration required to effectively neutralize (pVNT)” value was 271 ng/ml and the “times less than the concentration of E7” value is approximately 2 times.
In the case of B10, the “IC50 (pVNT)” value was not above 550 ng/ml.
Still for that read-out and setting: the same measure for B11: not above 550 ng/ml; for B12: not above 550 ng/ml.
Turning to B13, the “IC50 (pVNT)” value is not above 550 ng/ml.
Same read-out and setting: as for B14, the figure is not above 550 ng/ml; as for B15, not above 550 ng/ml.
The same measure, in the same setting: the same measure for B16: not above 550 ng/ml; for B17: not above 550 ng/ml.
Still for that read-out and setting: as for B18, the figure is not above 550 ng/ml.
With B19, the “IC50 (pVNT)” value was not above 550 ng/ml.
The same measure, in the same setting: the same measure for B20: not above 550 ng/ml; for B21: not above 550 ng/ml.
Still for that read-out and setting: as for B22, the figure is not above 550 ng/ml.
